Reference: patent US20230393144A1 (I MAB BIOPHARMA US, published 2023)

Molecular target: T1, anti-CD47 antibody TJC4
T1 construct: Tested as whole antibody; It was detected with an anti-human IgG4 secondary antibody, so it is human IgG4; also called therapeutic anti-CD47 antibody
Experiment: indirect ELISA / blocking IC50 of the purified hybridoma antibody against anti-CD47 TJC4
Source text: The binding of the anti-idiotypic antibodies generated in Examples 2 and 3 to anti-CD47 TJC4 antibody was characterized by indirect ELISA assay, and the IC₅₀ of the anti-idiotypic antibodies was used as a measure of their potential effectiveness in reducing interference by a therapeutic anti-CD47 antibody in a serological assay. Lower IC₅₀ values indicated stronger blocking ability. […] The IC₅₀ value for 9F9H11H8, and, therefore, the blocking ability of 9F9H11H8, was better than those of 37F8C4G12 and 34D8H11B5 (i.e., anti-idiotypic antibodies produced by other hybridoma clones).

T1 sequence (VH, as listed by the source, chain 1 of 2): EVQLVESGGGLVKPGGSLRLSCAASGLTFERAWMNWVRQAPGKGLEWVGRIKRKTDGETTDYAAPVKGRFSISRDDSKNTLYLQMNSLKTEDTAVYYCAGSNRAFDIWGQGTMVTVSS
T1 sequence (VL, as listed by the source, chain 2 of 2): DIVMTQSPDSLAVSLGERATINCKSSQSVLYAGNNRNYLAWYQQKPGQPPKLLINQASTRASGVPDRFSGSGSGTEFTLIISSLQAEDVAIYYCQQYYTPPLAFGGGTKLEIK

B1: anti-idiotypic antibody 9F9H11H8 (antibody, V domains shown)
VH: QIQLVQSGPELKKPGETVKISCKASGFTFTNYGMNWVRQAPGKGLKWMGWINTYTGQPTHADDFKGRFAFSLETSARTAFLEINSLQNEDTATYFCARGGMGVRLRYFDVWGAGTTVTVSS
VL: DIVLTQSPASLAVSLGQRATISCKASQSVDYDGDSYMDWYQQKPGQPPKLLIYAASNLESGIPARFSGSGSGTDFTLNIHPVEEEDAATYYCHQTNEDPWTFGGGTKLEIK
notes: also called 9F9H11F8
IC50: 0.382 µg/mL
